Paper PMC3017772, “The CaaX specificities of Arabidopsis protein prenyltransferases explain era1 and ggb phenotypes” (BMC Plant Biology, 2010)

B1: PFT (protein farnesyltransferase; PLP + ERA1) (Arabidopsis thaliana) (protein)
chain 1: PVVTRLIRLKCVGLRLDRSGLNRRICHGGHGESTRRRVMEELSSLTVSQREQFLVENDVFGIYNYFDASDVSTQKYMMEIQRDKQLDYLMKGLRQLGPQFSSLDANRPWLCYWILHSIALLGETVDDELESNAIDFLGRCQGSEGGYGGGPGQLPHLATTYAAVNALVTLGGDKALSSINREKMSCFLRRMKDTSGGFRMHDMGEMDVRACYTAISVASILNIMDDELTQGLGDYILSCQTYEGGIGGEPGSEAHGGYTYCGLAAMILINEVDRLNLDSLMNWAVHRQGVEMGFQGRTNKLVDGCYTFWQAAPCVLLQRLYSTNDHDVHGSSHISEGTNEEHHAHDEDDLEDSDDDDDSDEDNDEDSVNGHRIHHTSTYINRRMQLVFDSLGLQRYVLLCSKIPDGGFRDKPRKPRDFYHTCYCLSGLSVAQHAWLKDEDTPPLTRDIMGGYSNLLEPVQLLHNIVMDQYNEAIEFFFKAA
chain 2: not shown
notes: alpha/beta heterodimer co-expressed in E. coli Rosetta (pETDuet-1); N-terminal FLAG on PLP, N-terminal 6xHis on ERA1 (MHHHHHH-PVVTRLI from primer), tags kept; Co2+-IMAC purified
B2: PGGT1 (protein geranylgeranyltransferase type 1; PGGT I; PLP + GGB) (Arabidopsis thaliana) (protein)
chain 1: SETAVSIDSDRSKSEEEDEEEYSPPVQSSPSANFEKDRHLMYLEMMYELLPYHYQSQEINRLTLAHFIISGLHFLGARDRVDKDVVAKWVLSFQAFPTNRVSLKDGEFYGFFGSRSSQFPIDENGDLKHNGSHLASTYCALAILKVIGHDLSTIDSKSLLISMINLQQDDGSFMPIHIGGETDLRFVYCAAAICYMLDSWSGMDKESAKNYILNCQSYDGGFGLIPGSESHGGATYCAIASLRLMGYIGVDLLSNDSSSSIIDPSLLLNWCLQRQANDGGFQGRTNKPSDTCYAFWIGAVLKLIGGDALIDKMALRKFLMSCQSKYGGFSKFPGQLPDLYHSYYGYTAFSLLEEQGLSPLCPELGLPLLAAPGI
chain 2: not shown
notes: alpha/beta heterodimer co-expressed in E. coli Rosetta (pETDuet-1); N-terminal FLAG on PLP, N-terminal 6xHis on GGB (MHHHHHH-SETAVSI from primer), tags kept; Co2+-IMAC purified

Assays:
Test in all cases: radiometric filter prenylation assay, Lineweaver-Burk
Format in all cases: biochemical, Arabidopsis thaliana
[1] = substrate: CC(C)=CCC/C(C)=C/CC/C(C)=C/CC/C(C)=C/COP(=O)(O)OP(=O)(O)O; details: co-substrate GFP-BD-CVIQ, 50 mM Hepes pH 7.5, 20 mM MgCl2, 5 mM ZnCl2, 5 mM DTT, 0.1% Zwittergent, 30°C, labelled compound
Description: (§1) radiometric filter prenylation assay, Lineweaver-Burk on PFT (protein farnesyltransferase; PLP + ERA1)

[2] = substrate: CC(C)=CCC/C(C)=C/CC/C(C)=C/CO[P@@](=O)(O)OP(=O)(O)O; details: co-substrate GFP-BD-CVIQ, 50 mM Hepes pH 7.5, 20 mM MgCl2, 5 mM ZnCl2, 5 mM DTT, 0.1% Zwittergent, 30°C, labelled compound
Description: as §1

[3] = substrate: CC(C)=CCC/C(C)=C/CC/C(C)=C/CC/C(C)=C/COP(=O)(O)OP(=O)(O)O; details: co-substrate GFP-BD-CVIL, 50 mM Hepes pH 7.5, 20 mM MgCl2, 5 mM ZnCl2, 5 mM DTT, 0.1% Zwittergent, 30°C, labelled compound
Description: (§2) radiometric filter prenylation assay, Lineweaver-Burk on PGGT1 (protein geranylgeranyltransferase type 1; PGGT I; PLP + GGB)

[4] = substrate: CC(C)=CCC/C(C)=C/CC/C(C)=C/CO[P@@](=O)(O)OP(=O)(O)O; details: co-substrate GFP-BD-CVIL, 50 mM Hepes pH 7.5, 20 mM MgCl2, 5 mM ZnCl2, 5 mM DTT, 0.1% Zwittergent, 30°C, labelled compound
Description: as §2

| Protein | Km [1] | Km [2] | Km [3] | Km [4] |
| --- | --- | --- | --- | --- |
| B1 | 0.7 ± 0.3 µM | 0.2 ± 0.1 µM | – | – |
| B2 | – | – | 0.8 ± 0.1 µM | 0.6 ± 0.5 µM |
